Assay results taken from US20140087995A1 (published 2014).
Numbered stars: 1 amine (or outer) side, 2 acyl side, 3 side chain; on linkers, the order of the positions; unused ones are H or OH. Bridge positions count the residues as written; N and C are the ends. Side chains are listed from the residue outwards. Ends that are not written are not given here. * marks the point of attachment. C18 diacid = O=C(O)CCCCCCCCCCCCCCCCC(=O)*; γGlu = O=C(O)[C@H](CCC(=O)[*:2])N[*:1]; C14 diacid = O=C(O)CCCCCCCCCCCCC(=O)*

T1: human calcitonin receptor (human, UniProt P30988 25-474)
T1 construct: whole, on cells; also called hCTR; hCT
T1 sequence (looked up): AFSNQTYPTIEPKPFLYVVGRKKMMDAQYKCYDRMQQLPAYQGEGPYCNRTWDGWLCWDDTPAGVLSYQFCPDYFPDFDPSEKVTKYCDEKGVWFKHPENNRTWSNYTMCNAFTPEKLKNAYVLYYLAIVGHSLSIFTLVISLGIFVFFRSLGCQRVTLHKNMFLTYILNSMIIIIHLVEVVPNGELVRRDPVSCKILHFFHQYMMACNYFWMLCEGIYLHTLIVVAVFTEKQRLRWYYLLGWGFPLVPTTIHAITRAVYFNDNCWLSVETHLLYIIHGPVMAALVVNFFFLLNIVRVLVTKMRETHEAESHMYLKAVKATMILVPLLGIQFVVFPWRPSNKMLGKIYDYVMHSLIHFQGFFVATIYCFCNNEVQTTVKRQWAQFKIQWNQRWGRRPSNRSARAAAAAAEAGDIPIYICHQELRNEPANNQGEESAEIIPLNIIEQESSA


Key:
[1] = target: T1, human calcitonin receptor; assay: ratio of IC50 at human calcitonin receptor to IC50 at human amylin receptor (SPA competition assays)
Method in brief: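 Competition binding by SPA uses membrane preparations (35 ng/μL final) in pH 7.4 Hepes buffer with 1 mM CaCl2 and 5 mM MgCl₂. Incubation lasts 120 min at 25° C, and IC₅₀ comes from one-site fitting.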

[2] = target: T1, human calcitonin receptor; assay: SPA radioligand competition (125I-calcitonin), membranes of BHK cells with human calcitonin receptor
Method in brief: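 BHK hCTR membranes 35 ng/μL + SPA beads 0.05 mg/well; buffer 50 mM Hepes pH 7.4, 1 mM CaCl2, 5 mM MgCl₂, 0.1% OA, 0.02% Tween20. 120 min, 25° C., shaking. Scintillation count; IC50 by one-site binding competition.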

| Ratio hCT/hAmylin binding [1] | IC50 [2] [µM] | Binder |
| --- | --- | --- |
| 59.4 | 0.0227 | K([γGlu-C18 diacid])CNTATCATQRLANFLRHSSPNFGAIPSSTNVGHNTY-NH2 (disulfide 2-7; N-terminus assumed; SMILES CC[C@H](C)[C@H](NC(=O)[C@H](C)NC(=O)CNC(=O)[C@H](Cc1ccccc1)NC(=O)[C@H](CC(N)=O)NC(=O)[C@@H]1CCCN1C(=O)[C@H](CO)NC(=O)[C@H](CO)NC(=O)[C@H](Cc1c[nH]cn1)NC(=O)[C@H](CCCNC(=N)N)NC(=O)[C@H](CC(C)C)NC(=O)[C@H](Cc1ccccc1)NC(=O)[C@H](CC(N)=O)NC(=O)[C@H](C)NC(=O)[C@H](CC(C)C)NC(=O)[C@H](CCCNC(=N)N)NC(=O)[C@H](CCC(N)=O)NC(=O)[C@@H](NC(=O)[C@H](C)NC(=O)[C@@H]1CSSC[C@H](NC(=O)[C@@H](N)CCCCNC(=O)CC[C@H](NC(=O)CCCCCCCCCCCCCCCCC(=O)O)C(=O)O)C(=O)N[C@@H](CC(N)=O)C(=O)N[C@@H]([C@@H](C)O)C(=O)N[C@@H](C)C(=O)N[C@@H]([C@@H](C)O)C(=O)N1)[C@@H](C)O)C(=O)N1CCC[C@H]1C(=O)N[C@@H](CO)C(=O)N[C@@H](CO)C(=O)N[C@H](C(=O)N[C@@H](CC(N)=O)C(=O)N[C@H](C(=O)NCC(=O)N[C@@H](Cc1c[nH]cn1)C(=O)N[C@@H](CC(N)=O)C(=O)N[C@H](C(=O)N[C@@H](Cc1ccc(O)cc1)C(N)=O)[C@@H](C)O)C(C)C)[C@@H](C)O) [N^ε1-[(4S)-4-carboxy-4-(17-carboxyheptadecanoylamino)butanoyl]-[Arg17,Pro21,Pro27,His34]-h-amylin] |
| 23.5 | 0.0243 | K([γGlu-C14 diacid])CNTATCATQRLANFLRHSSPNFGAIPSSTNVGHNTY-NH2 (disulfide 2-7; N-terminus assumed; SMILES CC[C@H](C)[C@H](NC(=O)[C@H](C)NC(=O)CNC(=O)[C@H](Cc1ccccc1)NC(=O)[C@H](CC(N)=O)NC(=O)[C@@H]1CCCN1C(=O)[C@H](CO)NC(=O)[C@H](CO)NC(=O)[C@H](Cc1c[nH]cn1)NC(=O)[C@H](CCCNC(=N)N)NC(=O)[C@H](CC(C)C)NC(=O)[C@H](Cc1ccccc1)NC(=O)[C@H](CC(N)=O)NC(=O)[C@H](C)NC(=O)[C@H](CC(C)C)NC(=O)[C@H](CCCNC(=N)N)NC(=O)[C@H](CCC(N)=O)NC(=O)[C@@H](NC(=O)[C@H](C)NC(=O)[C@@H]1CSSC[C@H](NC(=O)[C@@H](N)CCCCNC(=O)CC[C@H](NC(=O)CCCCCCCCCCCCC(=O)O)C(=O)O)C(=O)N[C@@H](CC(N)=O)C(=O)N[C@@H]([C@@H](C)O)C(=O)N[C@@H](C)C(=O)N[C@@H]([C@@H](C)O)C(=O)N1)[C@@H](C)O)C(=O)N1CCC[C@H]1C(=O)N[C@@H](CO)C(=O)N[C@@H](CO)C(=O)N[C@H](C(=O)N[C@@H](CC(N)=O)C(=O)N[C@H](C(=O)NCC(=O)N[C@@H](Cc1c[nH]cn1)C(=O)N[C@@H](CC(N)=O)C(=O)N[C@H](C(=O)N[C@@H](Cc1ccc(O)cc1)C(N)=O)[C@@H](C)O)C(C)C)[C@@H](C)O) [N^ε1-[(4S)-4-carboxy-4-(13-carboxytridecanoylamino)butanoyl]-[Arg17,Pro21,Pro27,His34]-h-amylin] |
